# Experimental data published in paper PMC3390797, “Regulation of ASIC channels by a stomatin/STOML3 complex located in a mobile vesicle pool in sensory neurons” (Open Biology, 2012).
# T1: Strep-tagged STOML3-AmCyan1 (stomatin-like protein-3, wild type) (mouse, UniProt Q6PE84 1-287)
# T1 construct: Stomatin-like protein-3 (STOML3), mouse; Made from the STOML3-EGFP plasmid 'described previously' by cloning into pAmCyan1-N1 with a Strep tag; also called STOML3-Strep; STOML3-CFP; source: CHO cells, transiently transfected; in lysate (co-IP) and in live cells (FRET)
# T1 sequence (looked up): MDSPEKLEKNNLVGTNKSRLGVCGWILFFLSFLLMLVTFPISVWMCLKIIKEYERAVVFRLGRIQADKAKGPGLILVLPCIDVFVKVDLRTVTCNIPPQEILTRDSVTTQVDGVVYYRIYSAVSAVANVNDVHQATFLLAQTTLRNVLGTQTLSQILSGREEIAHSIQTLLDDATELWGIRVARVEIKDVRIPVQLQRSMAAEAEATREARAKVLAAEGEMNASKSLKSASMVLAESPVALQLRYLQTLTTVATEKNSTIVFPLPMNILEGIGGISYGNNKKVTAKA
# B1: EYFP-tagged ASIC1b (natural protein, mouse, UniProt Q6NXK8-2 1-559, looked up)
# chain: MPIQIFCSVSFSSGEEAPGSMGDIWGPHHHHRQQQDSSESEEEEEKEKESGMELDEGDSPRDLVAFANSCTLHGASHVFVEGGPGPRQALWAVAFVIALGAFLCQVGDRVAYYLSYPHVTLLDEVATTELVFPAVTFCNTNAVRLSQLSYPDLLYLAPMLGLDESDDPGVPLAPPGPEAFSGEPFNLHRFYNRSCHRLEDMLLYCSYCGGPCGPHNFSVVFTRYGKCYTFNSGQDGRPRLKTMKGGTGNGLEIMLDIQQDEYLPVWGETDETSFEAGIKVQIHSQDEPPFIDQLGFGVAPGFQTFVSCQEQRLIYLPSPWGTCNAVTMDSDFFDSYSITACRIDCETRYLVENCNCRMVHMPGDAPYCTPEQYKECADPALDFLVEKDQEYCVCEMPCNLTRYGKELSMVKIPSKASAKYLAKKFNKSEQYIGENILVLDIFFEVLNYETIEQKKAYEIAGLLGDIGGQMGLFIGASILTVLELFDYAYEVIKHRLCRRGKCQKEAKRNSADKGVALSLDDVKRHNPCESLRGHPAGMTYAANILPHHPARGTFEDFTC
# notes: source: CHO cells, transiently transfected, in live cells
# B2: EYFP-tagged ASIC2b (natural protein, rat, UniProt Q62962-2 1-563, looked up)
# chain: MSRSGGARLPATALSGPGRFRMAREQPAPVAVAAARQPGGDRSGDPALQGPGVARRGRPSLSRTKLHGLRHMCAGRTAAGGSFQRRALWVLAFCTSLGLLLSWSSNRLLYWLSFPSHTRVHREWSRQLPFPAVTVCNNNPLRFPRLSKGDLYYAGHWLGLLLPNRTARPLVSELLRGDEPRRQWFRKLADFRLFLPPRHFEGISAAFMDRLGHQLEDMLLSCKYRGELCGPHNFSSVFTKYGKCYMFNSGEDGKPLLTTVKGGTGNGLEIMLDIQQDEYLPIWGETEETTFEAGVKVQIHSQSEPPFIQELGFGVAPGFQTFVATQEQRLTYLPPPWGECRSSEMGLDFFPVYSITACRIDCETRYIVENCNCRMVHMPGDAPFCTPEQHKECAEPALGLLAEKDSNYCLCRTPCNLTRYNKELSMVKIPSKTSAKYLEKKFNKSEKYISENILVLDIFFEALNYETIEQKKAYEVAALLGDIGGQMGLFIGASLLTILELFDYIYELIKEKLLDLLGKEEEEGSHDENMSTCDTMPNHSETISHTVNVPLQTALGTLEEIAC
# notes: as for B1
# B3: EYFP-tagged ASIC4 (natural protein, mouse, UniProt Q7TNS7 1-539, looked up)
# chain: MPIEIVCKIKFAEEDAKPKEKEAGDEQSLLGAAQGPAAPRDLATFASTSTLHGLGRACGPGPHGLRRTLWALALLTSLAAFLYQAASLARGYLTRPHLVAMDPAAPAPVAGFPAVTLCNINRFRHSALSDADIFHLANLTGLPPKDRDGHRAAGLRYPEPDMVDILNRTGHQLADMLKSCNFSGHHCSASNFSVVYTRYGKCYTFNADPQSSLPSRAGGMGSGLEIMLDIQQEEYLPIWRETNETSFEAGIRVQIHSQEEPPYIHQLGFGVSPGFQTFVSCQEQRLTYLPQPWGNCRAESELREPELQGYSAYSVSACRLRCEKEAVLQRCHCRMVHMPGNETICPPNIYIECADHTLDSLGGGSEGPCFCPTPCNLTRYGKEISMVKIPNRGSARYLARKYNRNETYIRENFLVLDVFFEALTSEAMEQQAAYGLSALLGDLGGQMGLFIGASILTLLEILDYIYEVSWDRLKRVWRRPKTPLRTSTGGISTLGLQELKEQSPCPSRGRAEGGGASSLLPNHHHPHGPPGSLFEDFAC
# notes: as for B1
# B4: EYFP-tagged ASIC2a (natural protein, rat, UniProt Q62962-1 1-512, looked up)
# chain: MDLKESPSEGSLQPSSIQIFANTSTLHGIRHIFVYGPLTIRRVLWAVAFVGSLGLLLVESSERVSYYFSYQHVTKVDEVVAQSLVFPAVTLCNLNGFRFSRLTTNDLYHAGELLALLDVNLQIPDPHLADPTVLEALRQKANFKHYKPKQFSMLEFLHRVGHDLKDMMLYCKFKGQECGHQDFTTVFTKYGKCYMFNSGEDGKPLLTTVKGGTGNGLEIMLDIQQDEYLPIWGETEETTFEAGVKVQIHSQSEPPFIQELGFGVAPGFQTFVATQEQRLTYLPPPWGECRSSEMGLDFFPVYSITACRIDCETRYIVENCNCRMVHMPGDAPFCTPEQHKECAEPALGLLAEKDSNYCLCRTPCNLTRYNKELSMVKIPSKTSAKYLEKKFNKSEKYISENILVLDIFFEALNYETIEQKKAYEVAALLGDIGGQMGLFIGASLLTILELFDYIYELIKEKLLDLLGKEEEEGSHDENMSTCDTMPNHSETISHTVNVPLQTALGTLEEIAC
# notes: also called ASIC2a-YFP; source: CHO cells, transiently transfected, in live cells
# B5: EYFP-tagged ASIC1a (natural protein, mouse, UniProt Q6NXK8-1 1-526, looked up)
# chain: MELKTEEEEVGGVQPVSIQAFASSSTLHGLAHIFSYERLSLKRALWALCFLGSLAVLLCVCTERVQYYFCYHHVTKLDEVAASQLTFPAVTLCNLNEFRFSQVSKNDLYHAGELLALLNNRYEIPDTQMADEKQLEILQDKANFRSFKPKPFNMREFYDRAGHDIRDMLLSCHFRGEACSAEDFKVVFTRYGKCYTFNSGQDGRPRLKTMKGGTGNGLEIMLDIQQDEYLPVWGETDETSFEAGIKVQIHSQDEPPFIDQLGFGVAPGFQTFVSCQEQRLIYLPSPWGTCNAVTMDSDFFDSYSITACRIDCETRYLVENCNCRMVHMPGDAPYCTPEQYKECADPALDFLVEKDQEYCVCEMPCNLTRYGKELSMVKIPSKASAKYLAKKFNKSEQYIGENILVLDIFFEVLNYETIEQKKAYEIAGLLGDIGGQMGLFIGASILTVLELFDYAYEVIKHRLCRRGKCQKEAKRNSADKGVALSLDDVKRHNPCESLRGHPAGMTYAANILPHHPARGTFEDFTC
# notes: as for B1
# B6: EYFP-tagged ASIC3 (natural protein, rat, UniProt O35240 1-533, looked up)
# chain: MKPRSGLEEAQRRQASDIRVFASSCTMHGLGHIFGPGGLTLRRGLWATAVLLSLAAFLYQVAERVRYYGEFHHKTTLDERESHQLTFPAVTLCNINPLRRSRLTPNDLHWAGTALLGLDPAEHAAYLRALGQPPAPPGFMPSPTFDMAQLYARAGHSLEDMLLDCRYRGQPCGPENFTVIFTRMGQCYTFNSGAHGAELLTTPKGGAGNGLEIMLDVQQEEYLPIWKDMEETPFEVGIRVQIHSQDEPPAIDQLGFGAAPGHQTFVSCQQQQLSFLPPPWGDCNTASLDPDDFDPEPSDPLGSPRPRPSPPYSLIGCRLACESRYVARKCGCRMMHMPGNSPVCSPQQYKDCASPALDAMLRKDTCVCPNPCATTRYAKELSMVRIPSRASARYLARKYNRSESYITENVLVLDIFFEALNYEAVEQKAAYEVSELLGDIGGQMGLFIGASLLTILEILDYLCEVFQDRVLGYFWNRRSAQKRSGNTLLQEELNGHRTHVPHLSLGPRPPTTPCAVTKTLSASHRTCYLVTRL
# notes: as for B1
# Target: T1, Strep-tagged STOML3-AmCyan1 …
# Assay: FRET or BRET; three-cube FRET imaging of CHO cells co-expressing the AmCyan1 (CFP) and EYFP fusions; apparent FRET efficiency, calibrated with two fluorophore-tandem constructs
# Details: partners not purified
row,"apparent FRET efficiency (mean, cell-averaged)",Binder
1,13.9 ± 0.73%,B1
2,13.1 ± 0.49%,B2
3,15.4 ± 0.65%,B3
4,13.4 ± 0.52%,B4
5,14.4 ± 0.51%,B5
6,15.5 ± 0.67%,B6
